Key:
Assay in all cases: cell-based or functional assay
[1] = biological target: T1, GST-amphiphysin I SH3 domain (human, UniProt P49418 622-695)
T1 sequence (looked up): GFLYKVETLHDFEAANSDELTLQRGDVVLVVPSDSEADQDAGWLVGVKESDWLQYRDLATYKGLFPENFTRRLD

[2] = biological target: T2, GST-Formin Binding Protein 17 (FBP17) SH3 domain (human, UniProt Q96RU3 550-611)
T2 sequence (looked up): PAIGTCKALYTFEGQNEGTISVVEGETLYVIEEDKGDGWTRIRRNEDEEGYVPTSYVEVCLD

[3] = biological target: T3, GST-Cdc42 interacting protein 4 (CIP4) SH3 domain (human, UniProt Q15642 540-601)
T3 sequence (looked up): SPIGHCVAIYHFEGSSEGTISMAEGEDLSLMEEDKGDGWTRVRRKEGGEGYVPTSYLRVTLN

[4] = biological target: T4, GST-Actin binding protein 1 (Abp1) SH3 domain (mouse, UniProt Q62418 377-436)
T4 sequence (Q62418 377-436): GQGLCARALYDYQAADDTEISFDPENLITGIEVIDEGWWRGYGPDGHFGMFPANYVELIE

GST-cortactin SH3 domain [5] = biological target: T5, GST-cortactin SH3 domain (mouse, UniProt Q60598 488-546)
T5 sequence (Q60598 488-546): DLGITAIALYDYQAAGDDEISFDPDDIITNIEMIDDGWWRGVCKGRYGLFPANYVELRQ

[6] = biological target: T6, GST-amphiphysin II SH3 domain (human, UniProt O00499 520-593)
T6 sequence (looked up): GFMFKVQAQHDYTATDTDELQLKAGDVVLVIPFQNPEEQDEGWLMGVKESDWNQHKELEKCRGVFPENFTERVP

[7] = biological target: T7, GST-endophilin I SH3 domain (mouse, UniProt Q62420 290-349)
T7 sequence (Q62420 290-349): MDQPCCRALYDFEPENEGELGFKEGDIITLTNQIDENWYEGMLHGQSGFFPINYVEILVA

[8] = biological target: GST-intersectin I SH3A domain (Xenopus laevis)
[9] = biological target: GST-intersectin I SH3C domain (Xenopus laevis)
[10] = biological target: GST-intersectin I SH3E domain (Xenopus laevis)
[11] = biological target: T8, GST-syndapin I SH3 domain (mouse, UniProt Q61644 382-441)
T8 sequence (Q61644 382-441): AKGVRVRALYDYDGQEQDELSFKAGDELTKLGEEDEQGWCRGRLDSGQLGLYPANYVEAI

[12] = biological target: T9, GST-sorting-nexin 9 (SNX9) SH3 domain (human, UniProt Q9Y5X1 1-62)
T9 sequence (Q9Y5X1 1-62): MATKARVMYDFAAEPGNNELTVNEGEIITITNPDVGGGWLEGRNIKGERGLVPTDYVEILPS

GST-p85 SH3 domain [13] = biological target: T10, GST-p85 SH3 domain (bovine, UniProt P23727 3-79)
[14] = biological target: T1, GST-amphiphysin I SH3 domain; remark: listed apart in the source
[15] = biological target: T2, GST-Formin Binding Protein 17 (FBP17) …; remark: listed apart in the source
[16] = biological target: T3, GST-Cdc42 interacting protein 4 (CIP4) …; remark: listed apart in the source
[17] = biological target: T4, GST-Actin binding protein 1 (Abp1) SH3 …; remark: listed apart in the source
GST-cortactin SH3 domain [18] = biological target: T5, GST-cortactin SH3 domain; remark: listed apart in the source
[19] = biological target: T6, GST-amphiphysin II SH3 domain; remark: listed apart in the source
[20] = biological target: T7, GST-endophilin I SH3 domain; remark: listed apart in the source
[21] = biological target: GST-intersectin I SH3A domain (Xenopus laevis); remark: listed apart in the source
[22] = biological target: GST-intersectin I SH3C domain (Xenopus laevis); remark: listed apart in the source
[23] = biological target: GST-intersectin I SH3E domain (Xenopus laevis); remark: listed apart in the source
[24] = biological target: T8, GST-syndapin I SH3 domain; remark: listed apart in the source
[25] = biological target: T9, GST-sorting-nexin 9 (SNX9) SH3 domain; remark: listed apart in the source
GST-p85 SH3 domain [26] = biological target: T10, GST-p85 SH3 domain; remark: listed apart in the source

B1: endogenous sheep brain dynamin I (enzyme)
chain: MGNRGMEDLIPLVNRLQDAFSAIGQNADLDLPQIAVVGGQSAGKSSVLENFVGRDFLPRGSGIVTRRPLVLQLVNATTEYAEFLHCKGKKFTDFEEVRLEIEAETDRVTGTNKGISPVPINLRVYSPHVLNLTLVDLPGMTKVPVGDQPPDIEFQIRDMLMQFVTKENCLILAVSPANSDLANSDALKVAKEVDPQGQRTIGVITKLDLMDEGTDARDVLENKLLPLRRGYIGVVNRSQKDIDGKKDITAALAAERKFFLSHPSYRHLADRMGTPYLQKVLNQQLTNHIRDTLPGLRNKLQSQLLSIEKEVEEYKNFRPDDPARKTKALLQMVQQFAVDFEKRIEGSGDQIDTYELSGGARINRIFHERFPFELVKMEFDEKELRREISYAIKNIHGIRTGLFTPDLAFEATVKKQVQKLKEPSIKCVDMVVSELTATIRKCSEKLQQYPRLREEMERIVTTHIREREGRTKEQVMLLIDIELAYMNTNHEDFIGFANAQQRSNQMNKKKASGNQDEILVIRKGWLTINNIGIMKGGSKEYWFVLTAENLSWYKDDEEKEKKYMLSVDNLKLRDVEKGFMSSKHIFALFNTEQRNVYKDYRQLELACETQEEVDSWKASFLRAGVYPERVGDKEKASETEENGSDSFMHSMDPQLERQVETIRNLVDSYMAIVNKTVRDLMPKTIMHLMINNTKEFIFSELLANLYSCGDQNTLMEESAEQAQRRDEMLRMYHALKEALSIIGDINTTTVSTPMPPPVDDSWLQVQSVPTGRRSPTSSPTPQRRAPAVPPARPGSRGPAPGPPPAGSALGGAPPVPSRPGASPDPFGPPPQVPSRPNRAPPGVPSRSGQASPSRPESPRPPFDL
[1]
  dynamin GTPase activity stimulated by the GST-SH3 domain (ELIPA, 30 mM NaCl), fold change relative to no SH3: 5.32 fold change
[2]
  dynamin GTPase activity stimulated by the GST-SH3 domain (ELIPA, 30 mM NaCl), fold change relative to no SH3: 3.97 fold change
[3]
  dynamin GTPase activity stimulated by the GST-SH3 domain (ELIPA, 30 mM NaCl), fold change relative to no SH3: 0.83 fold change
[4]
  dynamin GTPase activity stimulated by the GST-SH3 domain (ELIPA, 30 mM NaCl), fold change relative to no SH3: 1.03 fold change
GST-cortactin SH3 domain [5]
  dynamin GTPase activity stimulated by the GST-SH3 domain (ELIPA, 30 mM NaCl), fold change relative to no SH3: 5.49 fold change
[6]
  dynamin GTPase activity stimulated by the GST-SH3 domain (ELIPA, 30 mM NaCl), fold change relative to no SH3: 1.09 fold change
[7]
  dynamin GTPase activity stimulated by the GST-SH3 domain (ELIPA, 30 mM NaCl), fold change relative to no SH3: 2.82 fold change
[8]
  dynamin GTPase activity stimulated by the GST-SH3 domain (ELIPA, 30 mM NaCl), fold change relative to no SH3: 14.7 fold change
[9]
  dynamin GTPase activity stimulated by the GST-SH3 domain (ELIPA, 30 mM NaCl), fold change relative to no SH3: 2.1 fold change
[10]
  dynamin GTPase activity stimulated by the GST-SH3 domain (ELIPA, 30 mM NaCl), fold change relative to no SH3: 1.83 fold change
[11]
  dynamin GTPase activity stimulated by the GST-SH3 domain (ELIPA, 30 mM NaCl), fold change relative to no SH3: 5.9 fold change
[12]
  dynamin GTPase activity stimulated by the GST-SH3 domain (ELIPA, 30 mM NaCl), fold change relative to no SH3: 5.12 fold change
GST-p85 SH3 domain [13]
  dynamin GTPase activity stimulated by the GST-SH3 domain (ELIPA, 30 mM NaCl), fold change relative to no SH3: 2.24 fold change
[14]
  rate of dynamin GTPase activity stimulated by the GST-SH3 domain (ELIPA, 30 mM NaCl, basal rate subtracted): 0.029 μmoles Pi/mg of dyn/min
[15]
  rate of dynamin GTPase activity stimulated by the GST-SH3 domain (ELIPA, 30 mM NaCl, basal rate subtracted): 0.016 μmoles Pi/mg of dyn/min
[16]
  rate of dynamin GTPase activity stimulated by the GST-SH3 domain (ELIPA, 30 mM NaCl, basal rate subtracted): 0 μmoles Pi/mg of dyn/min
[17]
  rate of dynamin GTPase activity stimulated by the GST-SH3 domain (ELIPA, 30 mM NaCl, basal rate subtracted): 0 μmoles Pi/mg of dyn/min
GST-cortactin SH3 domain [18]
  rate of dynamin GTPase activity stimulated by the GST-SH3 domain (ELIPA, 30 mM NaCl, basal rate subtracted): 0.031 μmoles Pi/mg of dyn/min
[19]
  rate of dynamin GTPase activity stimulated by the GST-SH3 domain (ELIPA, 30 mM NaCl, basal rate subtracted): 0.001 μmoles Pi/mg of dyn/min
[20]
  rate of dynamin GTPase activity stimulated by the GST-SH3 domain (ELIPA, 30 mM NaCl, basal rate subtracted): 0.012 μmoles Pi/mg of dyn/min
[21]
  rate of dynamin GTPase activity stimulated by the GST-SH3 domain (ELIPA, 30 mM NaCl, basal rate subtracted): 0.101 μmoles Pi/mg of dyn/min
[22]
  rate of dynamin GTPase activity stimulated by the GST-SH3 domain (ELIPA, 30 mM NaCl, basal rate subtracted): 0.008 μmoles Pi/mg of dyn/min
[23]
  rate of dynamin GTPase activity stimulated by the GST-SH3 domain (ELIPA, 30 mM NaCl, basal rate subtracted): 0.005 μmoles Pi/mg of dyn/min
[24]
  rate of dynamin GTPase activity stimulated by the GST-SH3 domain (ELIPA, 30 mM NaCl, basal rate subtracted): 0.033 μmoles Pi/mg of dyn/min
[25]
  rate of dynamin GTPase activity stimulated by the GST-SH3 domain (ELIPA, 30 mM NaCl, basal rate subtracted): 0.027 μmoles Pi/mg of dyn/min
GST-p85 SH3 domain [26]
  rate of dynamin GTPase activity stimulated by the GST-SH3 domain (ELIPA, 30 mM NaCl, basal rate subtracted): 0.009 μmoles Pi/mg of dyn/min

— publication PMC4687643, “SH3 Domains Differentially Stimulate Distinct Dynamin I Assembly Modes and G Domain Activity” (PLoS ONE, 2015)
